This assay has as its target SMARCD1 (human) (UniProt Q96GM5). The experiment in a line: HA-bait purification from HEK-293T nuclear extract, mass spectrometry, peptide count.

SMARCD1 (human), sequence (Q96GM5 whole entry): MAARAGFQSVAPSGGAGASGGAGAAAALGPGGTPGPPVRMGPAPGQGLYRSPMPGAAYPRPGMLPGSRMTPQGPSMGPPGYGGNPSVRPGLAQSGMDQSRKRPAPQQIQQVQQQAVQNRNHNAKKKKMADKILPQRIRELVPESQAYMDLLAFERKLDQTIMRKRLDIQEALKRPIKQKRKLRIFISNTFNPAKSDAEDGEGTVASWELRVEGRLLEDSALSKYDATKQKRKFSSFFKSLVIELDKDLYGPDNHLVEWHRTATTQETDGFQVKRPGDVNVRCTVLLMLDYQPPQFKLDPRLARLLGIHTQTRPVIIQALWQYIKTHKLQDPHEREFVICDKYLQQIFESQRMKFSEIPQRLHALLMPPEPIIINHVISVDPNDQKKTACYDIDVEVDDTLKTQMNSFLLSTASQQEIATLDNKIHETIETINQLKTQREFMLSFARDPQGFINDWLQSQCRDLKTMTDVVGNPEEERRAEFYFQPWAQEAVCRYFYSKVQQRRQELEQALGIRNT

B1: HA-BRD7 (protein, human)
chain: MYPYDVPDYAMGKKHKKHKSDKHLYEEYVEKPLKLVLKVGGNEVTELSTGSSGHDSSLFEDKNDHDKHKDRKRKKRKKGEKQIPGEEKGRKRRRVKEDKKKRDRDRVENEAEKDLQCHAPVRLDLPPEKPLTSSLAKQEEVEQTPLQEALNQLMRQLQRKDPSAFFSFPVTDFIAPGYSMIIKHPMDFSTMKEKIKNNDYQSIEELKDNFKLMCTNAMIYNKPETIYYKAAKKLLHSGMKILSQERIQSLKQSIDFMADLQKTRKQKDGTDTSQSGEDGGCWQREREDSGDAEAHAFKSPSKENKKKDKDMLEDKFKSNNLEREQEQLDRIVKESGGKLTRRLVNSQCEFERRKPDGTTTLGLLHPVDPIVGEPGYCPVRLGMTTGRLQSGVNTLQGFKEDKRNKVTPVLYLNYGPYSSYAPHYDSTFANISKDDSDLIYSTYGEDSDLPSDFSIHEFLATCQDYPYVMADSLLDVLTKGGHSRTLQEMEMSLPEDEGHTRTLDTAKEMEITEVEPPGRLDSSTQDRLIALKAVTNFGVPVEVFDSEEAEIFQKKLDETTRLLRELQEAQNERLSTRPPPNMICLLGPSYREMHLAEQVTNNLKELAQQVTPGDIVSTYGVRKAMGISIPSPVMENNFVDLTEDTEEPKKTDVAECGPGGS
On to B1, for which the Total came out at 73 peptides and the Unique came to 44 peptides.

For the origin of these results see US20210388040A1.
